Results as given in patent publication US20220281976A1 (Alector, published 2022).
Substitutions are numbered along the chain they refer to.

T1: mouse CD33 Fc fusion protein (mouse, UniProt Q63994 18-240, limits assumed)
T1 construct: also called mCD33-Fc
T1 sequence: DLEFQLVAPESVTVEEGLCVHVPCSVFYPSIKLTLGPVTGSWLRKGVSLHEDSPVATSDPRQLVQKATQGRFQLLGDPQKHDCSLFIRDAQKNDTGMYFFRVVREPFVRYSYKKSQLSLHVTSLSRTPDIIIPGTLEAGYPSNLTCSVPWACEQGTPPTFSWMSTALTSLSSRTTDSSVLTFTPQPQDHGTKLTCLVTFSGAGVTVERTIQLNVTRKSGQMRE

B1: C-72 (antibody, V domains shown)
VH: QVQLVESGGGVVQPGRSLRLSCAASGFTFSSYGMHWVRQAPGKGLEWVAVIWYDGSNKYYADSVKGRFTISRDNSKNTLYLQMNSLRAEDTAVYYCAKEGGTYSDDFDLWGGGTLVTVSS
VL: DIQMTQSPSSVSASVGDRVTITCRASQGISSWLAWYQQKPGKAPKLLIYAASSLQSGVPSRFSGSGSGTDFTLTISSLQPEDFATYYCQQASSFPLTFGGGTKVEIK
notes: human IgG1
B2: C-75 (antibody, V domains shown)
VH: EVQLLESGGGLVQPGGSLRLSCAASGFTFSSYAMSWVRQAPGKGLEWVSAISASGGSTYYADSVKGRFTISRDNSKNTLYLQMNSLRAEDTAVYYCARLHMTGTASSGMDVWGQGTTVTVSS
VL: DIVMTQSPDSLAVSLGERATINCKSSQSVLYSSNNKNYLAWYQQKPGQAPRLLIYGASSRATGIPDRFSGSGSGTDFTLTISRLEPEDFAVYYCQQDYSSPLTFGGGTKVEIK
notes: human IgG1
B3: C-6 (antibody, V domains shown)
VH: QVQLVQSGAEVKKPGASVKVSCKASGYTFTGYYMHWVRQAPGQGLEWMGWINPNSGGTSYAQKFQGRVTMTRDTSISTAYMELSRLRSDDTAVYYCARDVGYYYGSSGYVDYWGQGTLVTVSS
VL: DIQMTQSPSSVSASVGDRVTITCRASQGIDSWLAWYQQKPGKAPKLLIYAASSLQSGVPSRFSGSGSGTDFTLTISSLQPEDFATYYCQQASAHPPWTFGGGTKVEIK
notes: human IgG1
B4: C-57 (antibody, V domains shown)
VH: EVQLVESGGGLVQPGGSLRLSCAASGFTFSSYSMNWVRQAPGKGLEWVSYISSSSSTIYYADSVKGRFTISRDNAKNSLYLQMNSLRAEDTAVYYCARGGEGRPYLDIWGQGTMVTVSS
VL: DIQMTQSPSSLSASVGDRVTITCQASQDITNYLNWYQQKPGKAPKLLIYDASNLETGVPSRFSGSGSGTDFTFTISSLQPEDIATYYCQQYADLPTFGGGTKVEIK
notes: human IgG1
B5: C-68 (antibody, V domains shown)
VH: QVQLQESGPGLVKPSQTLSLTCTVSGGSISSGGYYWSWIRQHPGKGLEWIGNIYYSGSTYYNPSLKSRVTISVDTSKNQFSLKLSSVTAADTAVYYCARDLPNSGSPGSDYFDYWGQGTLVTVSS
VL: EIVLTQSPGTLSLSPGERATLSCRASQSVSSSYLAWYQQKPGQAPRLLIYGASSRATGIPDRFSGSGSGTDFTLTISRLEPEDFAVYYCQQYDNYPPTFGGGTKVEIK
notes: human IgG1
B6: C-69 (antibody, V domains shown)
VH: EVQLVESGGGLVQPGGSLRLSCAASGFTFSSYWMSWVRQAPGKGLEWVANIKSDGSEKYYVDSVKGRFTISRDNAKNSLYLQMNSLRAEDTAVYYCARAETYQLSSAFDIWGQGTMVTVSS
VL: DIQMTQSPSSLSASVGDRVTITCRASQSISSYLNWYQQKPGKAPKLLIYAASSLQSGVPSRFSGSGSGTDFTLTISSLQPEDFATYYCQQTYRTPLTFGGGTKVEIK
notes: human IgG1
B7: C-59 (antibody, V domains shown)
VH: QVQLVQSGAEVKKPGASVKVSCKASGYTFTSYYMHWVRQAPGQGLEWMGVINPSGGSTSYAQKFQGRVTMTRDTSTSTVYMELSSLRSEDTAVYYCAREGANYDSSGLDAWGQGTLVTVSS
VL: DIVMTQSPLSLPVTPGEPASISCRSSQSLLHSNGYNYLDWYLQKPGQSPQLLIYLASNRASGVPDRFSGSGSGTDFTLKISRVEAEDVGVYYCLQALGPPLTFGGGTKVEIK
notes: human IgG1
B8: C-61 (antibody, V domains shown)
VH: B7 VH with G100S, A101Q, N102Y, S105V, S106H, L108M, A110V, L116T
VL: B5 VL with D93Y, N94G, Y95L, P97L
notes: human IgG1
B9: C-24 (antibody, V domains shown)
VH: B7 VH with G100S, A101Q, N102Y, S105V, S106H, L108M, A110V, L116T
VL: B1 VL with V11L, G28S, W32Y, A34N, A91S, S92V, S93T, F94P
notes: human IgG1
B10: C-27 (antibody, V domains shown)
VH: B7 VH with G100S, A101Q, N102Y, S105V, S106H, L108M, A110V, L116T
VL: B1 VL with V11L, G28S, W32Y, A34N, A91H, S92Y, S93D, F94I
notes: human IgG1
B11: C-60 (antibody, V domains shown)
VH: B7 VH with G100S, A101Q, N102Y, S105V, S106H, L108M, A110V, L116T
VL: B1 VL with M4L, V11L, G28S, W32Y, A34N, A91S, S92V, S93H, F94V, L96I
notes: human IgG1
B12: C-65 (antibody, V domains shown)
VH: B7 VH with G100S, A101Q, N102Y, S105V, S106H, L108M, A110V, L116T
VL: B1 VL with V11L, G28S, W32Y, A34N, A91Q, S92Y, S93T, F94L, L96P
notes: human IgG1

The binders below were run against T2, human CD33 (human, UniProt P20138 18-364) (assay: cell-based or functional assay).
T2 sequence (P20138 18-364): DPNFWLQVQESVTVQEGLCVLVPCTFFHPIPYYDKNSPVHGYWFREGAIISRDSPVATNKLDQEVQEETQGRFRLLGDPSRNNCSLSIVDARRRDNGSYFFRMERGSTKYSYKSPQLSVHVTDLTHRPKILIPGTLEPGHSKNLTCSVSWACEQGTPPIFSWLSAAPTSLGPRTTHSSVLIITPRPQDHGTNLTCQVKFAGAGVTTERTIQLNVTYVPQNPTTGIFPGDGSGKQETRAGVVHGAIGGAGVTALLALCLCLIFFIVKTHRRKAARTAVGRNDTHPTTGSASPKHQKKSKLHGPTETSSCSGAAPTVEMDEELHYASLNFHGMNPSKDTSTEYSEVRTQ

Percent CD33 Surface Expression, DC % CD33	Percent CD33 Surface Expression, Macrophage % CD33	Percent CD33 Surface Expression, Monocyte % CD33	Binder
43.4%	47.5%	41.8%	B1
88.7%	–	85.9%	B2
83%	98.6%	91%	B3
20.7%	41.8%	37.1%	B4
59.1%	–	71.9%	B5
21.7%	41.8%	29.3%	B6
24.7%	41.5%	37.5%	B7
22.8%	50.8%	38.3%	B8
28.8%	42.7%	43.1%	B9
37.8%	46.3%	39.1%	B10
26.8%	45.4%	41.7%	B11
26.9%	44.5%	31.2%	B12

These binders were tested against T1, mouse CD33 Fc fusion protein (assay: ForteBio BLI or MSD-SET).

binding result	Binder
no binding (tested: 100 nM)	B1
no binding (tested: 100 nM)	B2
no binding (tested: 100 nM)	B3
no binding (tested: 100 nM)	B4
no binding (tested: 100 nM)	B5
no binding (tested: 100 nM)	B6
no binding (tested: 100 nM)	B7
no binding (tested: 100 nM)	B8
no binding (tested: 100 nM)	B9
no binding (tested: 100 nM)	B10
no binding (tested: 100 nM)	B11
no binding (tested: 100 nM)	B12

The binders below were run against T3, human CD33 Fc fusion protein (human, UniProt P20138 18-259) (assay: ForteBio BLI or MSD-SET, IgG, avid;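 also: Anti-CD33 IgG affinity by BLI, IgG captured on AHQ sensors with antigen in solution and a one-to-one kinetic fit, or by MSD solution equilibrium titration with quadratic fit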).
T3 construct: also called hCD33-Fc; human CD33/Fc chimera (R&D Systems)
T3 sequence (P20138 18-259 limits assumed): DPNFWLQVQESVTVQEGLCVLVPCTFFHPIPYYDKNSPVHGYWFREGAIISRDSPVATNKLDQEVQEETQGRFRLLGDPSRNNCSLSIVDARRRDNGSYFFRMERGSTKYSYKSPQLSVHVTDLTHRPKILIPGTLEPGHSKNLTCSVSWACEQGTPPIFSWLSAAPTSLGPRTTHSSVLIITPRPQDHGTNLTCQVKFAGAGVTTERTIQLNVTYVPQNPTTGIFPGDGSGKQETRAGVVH

Kd	Binder
1.77 nM	B1
1.04 nM	B2
2.83 nM	B3
1.8 nM	B4
4.61 nM	B5
2.94 nM	B6
1.6 nM	B7
2.06 nM	B8
1.54 nM	B9
1.67 nM	B10
1.66 nM	B11
1.62 nM	B12

These binders were tested against T2, human CD33 (assay: flow cytometry, human primary T cells;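 also: binding of anti-CD33 antibodies at 10 ug/ml to human primary T cells, 1 h on ice, detected with PE-labelled secondary antibody, read as flow cytometry MFI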).

T cell MFI	Binder
330	B1
399	B2
46	B3
234	B4
561	B5
318	B6
191	B7
242	B8
193	B9
414	B10
221	B11
216	B12

These binders were tested against T2, human CD33 (assay: flow cytometry, human primary monocytes;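 also: binding of anti-CD33 antibodies at 10 ug/ml to human primary monocytes, 1 h on ice, detected by PE-labelled secondary antibody, flow cytometry readout as mean fluorescence intensity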).
Parameters: reference not given here

Monocyte MFI	Binder
118	B1
686	B2
131	B3
162	B4
115	B5
80	B6
140	B7
122	B8
165	B9
113	B10
151	B11
161	B12

The binders below were run against T2, human CD33 (assay: flow cytometry, human primary macrophages;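 also: binding of CD33 antibodies at 10 µg/ml to human primary macrophages, 1 h on ice, detected with PE-labelled secondary antibody by flow cytometry, reported as MFI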).
Method: (§1) Initial characterization of CD33 antibodies involved determining their ability to bind CD33 expressed on a CHO cell line, on human primary monocytes, human primary macrophages, human primary dendritic cells, and on human primary T cells. Cells were harvested, plated at 10⁶/ml in a 96 well plate, and incubated in 100 ul PBS containing 2% FBS, 2 mM EDTA and 10 ug/ml Mab and Fc blocking reagent for 1 hour in ice. Cells were washed twice and incubated in 100 ul PBS containing 2% FBS, 2 mM EDTA and 5 ug/ml PE-conjugated secondary antibody for 30 minutes on ice. Cells were washed twice in cold PBS and analyze by flow cytometry on a BD FACS Canto. Data analysis and calculation of MFI values was performed with FlowJo (TreeStar) software version 10.0.7.

Macrophage MFI	Binder
657	B1
778	B2
871	B3
867	B4
752	B5
628	B6
598	B7
797	B8
752	B9
602	B10
775	B11
852	B12

The binders below were run against T2, human CD33 (assay: flow cytometry, human primary dendritic cells;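 also: binding of anti-CD33 antibodies (10 ug/ml, 1 h on ice) to human primary dendritic cells, detected with a PE-labelled secondary antibody, reported as flow cytometry MFI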).
Method: as §1

DC MFI	Binder
742	B1
46	B2
1040	B3
1490	B4
526	B5
923	B6
1130	B7
1310	B8
1230	B9
1300	B10
1040	B11
1330	B12

What follows are binders tested against T4, human monomeric His tagged CD33 protein (human, UniProt P20138 18-259) (assay: ForteBio BLI or MSD-SET, IgG, monomeric antigen;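 also: BLI: antibodies captured on AHQ sensors, 100 nM antigen association 5 min, dissociation 5 min, 1:1 fit. MSD-SET: antigen fixed at 50 pM, antibody titrated, quadratic fit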).
T4 construct: also called hCD33-His
T4 sequence (P20138 18-259 limits assumed): as above
Method: The binding affinity of each anti-CD33 antibody was determined by measuring their KD by ForteBio or MSD-SET. […] Briefly, ForteBio affinity measurements were performed by loading IgGs on-line onto AHQ sensors. Sensors were equilibrated off-line in assay buffer for 30 min and then monitored on-line for 60 seconds for baseline establishment. Sensors with loaded IgGs were exposed to 100 nM antigen for 5 minutes, then transferred to assay buffer for 5 min for off-rate measurement. Kinetics were analyzed using the 1:1 binding model.
Solution equilibrium titrations (SET) were performed in PBS+0.1% IgG-Free BSA (PBSF) with antigen held constant at 50 pM and incubated with 3-to 5-fold serial dilutions of antibody starting at 10 nM. Antibodies (20 nM in PBS) were coated onto standard bind MSD-ECL plates overnight at 4° C. or at room temperature for 30 min. Plates were then blocked for 30 min with shaking at 700 rpm, followed by three washes with wash buffer (PBSF+0.05% Tween 20). SET samples were applied and incubated on the plates for 150s with shaking at 700 rpm followed by one wash. Antigen captured on a plate was detected with 250 ng/mL sulfotag-labeled streptavidin in PBSF by incubation on the plate for 3 min. The plates were washed three times with wash buffer and then read on the MSD Sector Imager 2400 instrument using 1× Read Buffer T with surfactant. The percent free antigen was plotted as a function of titrated antibody in Prism and fit to a quadratic equation to extract the KD. To improve throughput, liquid handling robots were used throughout MSD-SET experiments, including SET sample preparation.

Kd	Binder
7.7 nM	B1
4.63 nM	B2
8.94 nM	B3
7.67 nM	B4
30.9 nM	B5
22.1 nM	B6
9.16 nM	B7
13.4 nM	B8
6.95 nM	B9
10.9 nM	B10
9.33 nM	B11
7.67 nM	B12

These binders were tested against T3, human CD33 Fc fusion protein (assay: RBC adhesion to plate-bound CD33-Fc; antibody 0.5 ug/ml;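 also: Plate-coated CD33-Fc preincubated 1 h with antibody, then red blood cells added for 1 h at room temperature, adherent cells lysed and quantified via peroxidase activity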).
Method: Briefly, 5 ug/ml CD33-Fc was coated overnight at RT in 96 well Immunolon plates, then washed with PBS, blocked for one hour with binding buffer (PBS containing %0.25 BSA 1 mM CaCl₂). CD33 antibodies (0.5 ug/ml or 1.0 ug/ml) or Fabs (25 ug/ml) were bound for one hour at RT with gentle rocking. After removal of unbound antibody, red blood cells were added to each well at a concentration of 3.0×10⁶ cells per ml and incubated at RT for one hour. Unbound RBCs were then carefully washed off 3× with PBS, and water was added to each well for hypotonic lysis of bound RBCs. The plate was transferred to −80° C. for 10 minutes, followed by 37° C. for 15 minutes. Bound RBCs were detected by peroxidase activity, followed by 2N sulfuric acid to stop the reaction.

Percent RBC Binding to CD33	Binder
36.2%	B1
72.6%	B2
102%	B3
15.8%	B4
31.6%	B5
11.3%	B6
18.2%	B7
13.3%	B8
13%	B9
15.9%	B10
10.7%	B11
11.5%	B12

Each binder was assayed against T3, human CD33 Fc fusion protein (assay: RBC adhesion to plate-bound CD33-Fc; antibody 1.0 ug/ml;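 also: red blood cells adhering to plate-coated CD33-Fc after 1 h antibody pretreatment, then 1 h at room temperature, bound cells read as peroxidase activity after lysis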).

Percent RBC Binding to CD33	Binder
18.9%	B1
67%	B2
98.1%	B3
10.6%	B4
10.1%	B5
8.95%	B6
10.7%	B7
9.73%	B8
8.98%	B9
12.6%	B10
12.9%	B11
9.33%	B12
